Measured values as given in patent publication US20240117038A1 (Ablynx, published 2024).
Positions count from the first letter of the chain named. Numbers in names are those of the source.

T1: cynomolgus CX3CR1 (cynomolgus monkey (Macaca fascicularis), UniProt P49238 1-355 (human entry))
T1 construct: Overexpressed on CHO K1 cells; also called cyno CX3CR1; cyCX3CR1
T1 chain: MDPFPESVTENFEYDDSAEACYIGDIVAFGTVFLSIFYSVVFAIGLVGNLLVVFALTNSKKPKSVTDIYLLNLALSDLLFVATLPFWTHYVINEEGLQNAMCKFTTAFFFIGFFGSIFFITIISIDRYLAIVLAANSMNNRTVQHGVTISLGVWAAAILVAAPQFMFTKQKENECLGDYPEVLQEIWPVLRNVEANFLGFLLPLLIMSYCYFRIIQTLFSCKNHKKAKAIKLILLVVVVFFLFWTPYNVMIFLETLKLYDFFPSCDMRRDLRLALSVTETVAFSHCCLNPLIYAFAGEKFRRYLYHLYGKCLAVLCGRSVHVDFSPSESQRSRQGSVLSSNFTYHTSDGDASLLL

T2: human CX3CR1 (human, UniProt P49238 1-355)
T2 construct: Overexpressed on CHO K1, Ba/F3 or HEK293T cells; also called huCX3CR1; hCX3CR1
T2 sequence: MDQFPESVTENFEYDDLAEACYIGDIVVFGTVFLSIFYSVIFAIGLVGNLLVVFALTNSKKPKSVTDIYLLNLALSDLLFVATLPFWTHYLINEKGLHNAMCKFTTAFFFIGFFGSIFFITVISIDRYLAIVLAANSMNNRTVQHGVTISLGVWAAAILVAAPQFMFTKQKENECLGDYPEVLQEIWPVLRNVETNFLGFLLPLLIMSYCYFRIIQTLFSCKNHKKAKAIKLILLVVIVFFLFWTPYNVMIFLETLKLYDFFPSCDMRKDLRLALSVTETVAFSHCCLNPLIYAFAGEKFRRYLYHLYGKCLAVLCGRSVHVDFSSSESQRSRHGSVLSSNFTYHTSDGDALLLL

B1: 66B02_SO (VHH)
VHH: EVQLVESGGGSVQPGGSLRLSCAASGSIFSSTAMAWYRQAPGKRRDLVAAINTVGVTKYADSVKGRFTISRDNAKNTVYLQMNSLRPEDTALYYCTSDPRRGWDTRYWGQGTLVTVSS
notes: Monovalent anti-CX3CR1 ISVD; The oligomerization and Tagg assays used a 3xFLAG-His6 tagged form made in E. coli
B2: 54A12_SO (VHH)
VHH: B1 VHH with R44Q, A50V, N52S, V56I, P99A
notes: as for B1
B3: A041600042 (VHH)
chain: DVQLVESGGGSVQPGGSLRLSCAASGSIFSSTAMAWYRQAPGKRRDLVAAINTVGVTKYADSVKGRFTISRDNAKNTVYLQMNSLRPEDTALYYCTSDPRRGWDTRYWGQGTLVTVSSGGGGSGGGGSGGGGSGGGGSEVQLVESGGGSVQPGGSLRLSCAASGSIFSSTAMAWYRQAPGKRRDLVAAINTVGVTKYADSVKGRFTISRDNAKNTVYLQMNSLRPEDTALYYCTSDPRRGWDTRYWGQGTLVTVSSGGGGSGGGGSGGGGSGGGGSEVQLVESGGGVVQPGGSLRLSCAASGFTFRSFGMSWVRQAPGKGPEWVSSISGSGSDTLYADSVKGRFTISRDNSKNTLYLQMNSLRPEDTALYYCTIGGSLSRSSQGTLVTVSSA
notes: Trivalent ISVD construct (two anti-CX3CR1 ISVDs, one anti-albumin ISVD), C-terminal alanine included in the entry; also called 66B02_SO (E1D)-20GS-66B02_SO-20GS-ALB23002-A
B4: A041600011 (VHH)
chain: DVQLVESGGGSVQPGGSLRLSCAASGSIFSSTAMAWYRQAPGKRRDLVAAINTVGVTKYADSVKGRFTISRDNAKNTVYLQMNSLRPEDTALYYCTSDPRRGWDTRYWGQGTLVTVSSGGGGSGGGSEVQLVESGGGSVQPGGSLRLSCAASGSIFSSTAMAWYRQAPGKRRDLVAAINTVGVTKYADSVKGRFTISRDNAKNTVYLQMNSLRPEDTALYYCTSDPRRGWDTRYWGQGTLVTVSSGGGGSGGGSEVQLVESGGGVVQPGGSLRLSCAASGFTFRSFGMSWVRQAPGKGPEWVSSISGSGSDTLYADSVKGRFTISRDNSKNTLYLQMNSLRPEDTALYYCTIGGSLSRSSQGTLVTVSSA
notes: Trivalent ISVD construct (two anti-CX3CR1 ISVDs, one anti-albumin ISVD), C-terminal alanine included in the entry; also called 66B02_SO (E1D)-9GS-66B02_SO-9GS-ALB23002-A
B5: A041600040 (VHH)
chain: B4 chain with R171Q, A177V, N179S, V183I, P226A
notes: Trivalent ISVD construct (two anti-CX3CR1 ISVDs, one anti-albumin ISVD), C-terminal alanine included in the entry; also called 66B02_SO (E1D)-9GS-54A12_SO-9GS-ALB23002-A
B6: A041600026 (VHH)
chain: DVQLVESGGGSVQPGGSLRLSCAASGSIFSSTAMAWYRQAPGKRRDLVAAINTVGVTKYADSVKGRFTISRDNAKNTVYLQMNSLRPEDTALYYCTSDPRRGWDTRYWGQGTLVTVSSGGGGSGGGGSGGGGSGGGGSEVQLVESGGGVVQPGGSLRLSCAASGFTFRSFGMSWVRQAPGKGPEWVSSISGSGSDTLYADSVKGRFTISRDNSKNTLYLQMNSLRPEDTALYYCTIGGSLSRSSQGTLVTVSSGGGGSGGGGSGGGGSGGGGSEVQLVESGGGSVQPGGSLRLSCAASGSIFSSTAMAWYRQAPGKRRDLVAAINTVGVTKYADSVKGRFTISRDNAKNTVYLQMNSLRPEDTALYYCTSDPRRGWDTRYWGQGTLVTVSSA
notes: Trivalent ISVD construct; also called 66B02_SO (E1D)-20GS-ALB23002-20GS-66B02_SO-A
B7: A041600010 (VHH)
chain: DVQLVESGGGSVQPGGSLRLSCAASGSIFSSTAMAWYRQAPGKRRDLVAAINTVGVTKYADSVKGRFTISRDNAKNTVYLQMNSLRPEDTALYYCTSDPRRGWDTRYWGQGTLVTVSSGGGGSGGGSEVQLVESGGGVVQPGGSLRLSCAASGFTFRSFGMSWVRQAPGKGPEWVSSISGSGSDTLYADSVKGRFTISRDNSKNTLYLQMNSLRPEDTALYYCTIGGSLSRSSQGTLVTVSSGGGGSGGGSEVQLVESGGGSVQPGGSLRLSCAASGSIFSSTAMAWYRQAPGKRRDLVAAINTVGVTKYADSVKGRFTISRDNAKNTVYLQMNSLRPEDTALYYCTSDPRRGWDTRYWGQGTLVTVSSA
notes: Trivalent ISVD construct (two anti-CX3CR1 ISVDs, one anti-albumin ISVD); also called 66B02_SO (E1D)-9GS-ALB23002-9GS-66B02_SO-A
B8: A041600031 (VHH)
chain: B7 chain with R295Q, A301V, N303S, V307I, P350A
notes: Trivalent ISVD construct (two anti-CX3CR1 ISVDs, one anti-albumin ISVD), C-terminal alanine included in the entry; also called 66B02_SO (E1D)-9GS-ALB23002-9GS-54A12_SO-A

Target: T1, cynomolgus CX3CR1
Experiment: competition flow cytometry vs huCX3CL1-AF647 (2E-10 M) on CHO K1 cyno CX3CR1 cells, 30 uM HSA
Experimental: (§1) CHO cells overexpressing human or cyno CX3CR1 were generated using techniques known in the art. Cells were harvested and resuspended in assay buffer (PBS, 2% FBS, 0.05% NaN3). The cells were seeded in 384-well Bio-One V-bottom plates (Greiner, Cat. No. 781280), with a total of 2E04 cells seeded per well. After washing, ISVD proteins (starting from 250 nM, 3-fold dilution, 11 points, in assay buffer) were premixed with 30 μM HSA (Sigma-Aldrich, Cat. No. A8763) and human CX3CL1 labelled with AF647 (R&D Systems, Cat. No. 365-FR; labelled in house) at a final concentration of 2E-10 M (˜EC30) and added to the cells for 4 hours at 4° C. Plates were washed 3 times and cells were resuspended in PI (Miltenyi Biotec, Cat. No. 130-093-233, 1000-fold diluted in assay buffer). Cell suspensions were analysed with iQue Screener PLUS or iQue 3(Intellicyt). The IC50s were estimated by dose response modelling. Curves were fit using 4 parameter logistic regression in GraphPad (GraphPad Software Inc.).

Row | IC50 [nM] | Binder
1 | 2.9 | B1
2 | 6 | B2

Target: T1, cynomolgus CX3CR1
Experiment: flow cytometry on CHO K1 cyCX3CR1 cells, 30 uM HSA
Experimental: (§2) CHO cells overexpressing human or cynomolgus CX3CR1 were generated using techniques known in the art. Cells were harvested and resuspended in assay buffer (PBS, 2% FBS, 0.05% NaN3) and seeded separately in 384-well Bio-One V-bottom plates (Greiner, Cat. No. 781280), with a total of 2E04 cells seeded per well. After washing, serial dilutions of multivalent ISVD construct (starting from 250 nM, 3-fold dilution, 11 points, diluted in assay buffer), were added and incubated for 4 hours at 4° C. Binding was performed in the presence of 30 uM HSA (Sigma-Aldrich, Cat. No. A8763). Plates were then washed 3 times and cells were incubated with an anti-VHH mouse antibody (3300-fold diluted in assay buffer) for 30 minutes at 4′° C. […] Plates were finally washed 3 times and cells were resuspended in PI (Miltenyi Biotec, Cat. No. 130-093-233, 1000-fold diluted in assay buffer). Cell suspensions were analyzed with iQue Screener PLUS (Intellicyt). EC50s were estimated by dose response modelling. Curves were fit using 4 parameter logistic regression in GraphPad (GraphPad Software Inc.). A purified anti-human CX3CR1 antibody [K0124E1] (BioLegend, Cat. No. 355701/355702) was used as positive control to detect CX3CR1 expression on the cell surface.

Row | EC50 [nM] | top | Binder
3 | 0.12 | 373000 | B3
4 | 0.11 | 331000 | B4
5 | 0.14 | 363000 | B5
6 | 0.25 | 290000 | B6
7 | 0.46 | 214000 | B7
8 | 0.32 | 300000 | B8

target: T2, human CX3CR1; experiment: competition flow cytometry vs soluble huCX3CL1-AF647 on CHO K1 huCX3CR1 cells, 30 uM HSA

Row | % inhibition [%] | IC50 [nM] | Binder
9 | 95 | 1.4 | B3
10 | 94 | 0.66 | B4
11 | 101 | 0.99 | B5
12 | 102 | 1.1 | B6
13 | 94 | 3.8 | B7
14 | 96 | 2.1 | B8

target: T2, human CX3CR1; experiment: competition flow cytometry vs huCX3CL1-AF647 (2E-10 M) on CHO K1 human CX3CR1 cells, 30 uM HSA
Experimental: as §1

Row | IC50 [nM] | Binder
15 | 0.48 | B1
16 | 0.89 | B2

Target: T1, cynomolgus CX3CR1
Experiment: competition flow cytometry vs soluble huCX3CL1-AF647 on CHO K1 cyCX3CR1 cells, 30 uM HSA

Row | % inhibition [%] | IC50 [nM] | Binder
17 | 104 | 0.67 | B3
18 | 111 | 1.2 | B4
19 | 117 | 0.62 | B5
20 | 104 | 1.2 | B6
21 | 113 | 2.4 | B7
22 | 105 | 1.2 | B8

target: T2, human CX3CR1; experiment: flow cytometry on CHO K1 huCX3CR1 cells, 30 uM HSA
Experimental: as §2

Row | EC50 [nM] | top | Binder
23 | 0.13 | 40000 | B3
24 | 0.079 | 44200 | B4
25 | 0.1 | 42200 | B5
26 | 0.29 | 35600 | B6
27 | 0.41 | 22800 | B7
28 | 0.3 | 31300 | B8
